The subject of this series is Escherichia coli TOP10. Nature of the series: shrunken log2 fold change of peptide-encoding DNA abundance (4.5 h post-induction vs induction); higher = less antimicrobial activity (less host growth inhibition). The settings on record: time post-induction: 4.5 h; library: site-saturation at positions 5, 18, 19, 20.

The values below come from the supplement of paper PMC9112550, “Optimization of the antimicrobial peptide Bac7 by deep mutational scanning” (BMC Biology, 2022).
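Further: peptides expressed intracellularly from a pBAD plasmid library in pooled LB shake-flask culture, induced with 0.3% L-arabinose, DNA abundance read by NGS, three biological replicates, DESeq2 with apeglm shrinkage.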

Consider RRIRYRPPRLPRPRPRPHPKPRP, for which the “shrunken log2 fold change” value is -0.0588.
Under RRIRNRPPRLPRPRPRPIFRPRP stands -0.0067; under RRIRVRPPRLPRPRPRPFYPPRP, -0.441.
Consider RRIRSRPPRLPRPRPRPEASPRP, for which the “shrunken log2 fold change” value is 0.715.
With RRIRKRPPRLPRPRPRPDVAPRP, the “shrunken log2 fold change” value came to 0.0256.
Under RRIRERPPRLPRPRPRPRDQPRP stands 0.424; under RRIRDRPPRLPRPRPRPIQWPRP, -0.153; under RRIRGRPPRLPRPRPRPIYVPRP, 1.23.
Under RRIRWRPPRLPRPRPRPEMNPRP stands 0.753.
Under RRIRDRPPRLPRPRPRPCIMPRP stands 0.0282; under RRIRTRPPRLPRPRPRPCEKPRP, -0.0336.
Consider RRIRRRPPRLPRPRPRPNAIPRP, for which the “shrunken log2 fold change” value is -0.116.
The same measure for RRIRERPPRLPRPRPRPLAYPRP: -0.203.
The same measure for RRIRQRPPRLPRPRPRPGSGPRP: 0.135; for RRIRCRPPRLPRPRPRPCGNPRP: -0.278.
For RRIRLRPPRLPRPRPRPDEGPRP, the “shrunken log2 fold change” value was -0.018.
RRIRFRPPRLPRPRPRPSMGPRP: the “shrunken log2 fold change” value is -0.648.
Take RRIRDRPPRLPRPRPRPWMWPRP: the “shrunken log2 fold change” value worked out at 0.00708.
Under RRIRARPPRLPRPRPRPDKYPRP stands 1.5.
The same measure for RRIRIRPPRLPRPRPRPFLMPRP: -0.314; for RRIRARPPRLPRPRPRPQETPRP: 0.0762; for RRIRFRPPRLPRPRPRPHICPRP: -0.0238.
Under RRIRYRPPRLPRPRPRPKWFPRP stands -0.87.
Turning to RRIRTRPPRLPRPRPRPHDGPRP, the “shrunken log2 fold change” value is -0.0845.
Under RRIRNRPPRLPRPRPRPGVNPRP stands 0.0306; under RRIRTRPPRLPRPRPRPDAKPRP, 0.395; under RRIRIRPPRLPRPRPRPDLDPRP, -3.99e-05.
On to RRIRFRPPRLPRPRPRPKSDPRP, for which the “shrunken log2 fold change” value was 0.0639.
The same measure for RRIRLRPPRLPRPRPRPWGFPRP: -0.0515.
The same measure for RRIRCRPPRLPRPRPRPVGTPRP: -0.149; for RRIRWRPPRLPRPRPRPPFIPRP: -0.117.
For RRIRTRPPRLPRPRPRPKCFPRP, the “shrunken log2 fold change” value is -0.384.
The same measure for RRIRGRPPRLPRPRPRPMEHPRP: 0.171; for RRIRERPPRLPRPRPRPNRYPRP: -0.0565; for RRIRMRPPRLPRPRPRPAANPRP: -0.00188.
Under RRIRVRPPRLPRPRPRPVKEPRP stands 0.629.
The same measure for RRIRGRPPRLPRPRPRPNGRPRP: 0.419; for RRIRPRPPRLPRPRPRPATYPRP: -0.46.
Regarding RRIRWRPPRLPRPRPRPSFFPRP, the “shrunken log2 fold change” value came to 0.0041.
For the sequence RRIRNRPPRLPRPRPRPCTYPRP, the “shrunken log2 fold change” value stood at 0.05.
The same measure for RRIRCRPPRLPRPRPRPMCTPRP: -0.098.
The same measure for RRIRKRPPRLPRPRPRPNGFPRP: 0.49; for RRIRWRPPRLPRPRPRPSMYPRP: -0.326.
In the case of RRIRFRPPRLPRPRPRPYAIPRP, the “shrunken log2 fold change” value was -0.536.
Under RRIRCRPPRLPRPRPRPTDQPRP stands 0.38; under RRIRLRPPRLPRPRPRPTRRPRP, 0.298; under RRIRWRPPRLPRPRPRPNIVPRP, -0.112.
Under RRIRHRPPRLPRPRPRPNHFPRP stands -0.262.
Under RRIRGRPPRLPRPRPRPEWHPRP stands 0.386; under RRIRCRPPRLPRPRPRPGVEPRP, 0.0401; under RRIRTRPPRLPRPRPRPPTPPRP, 0.368.
Regarding RRIRNRPPRLPRPRPRPRLEPRP, the “shrunken log2 fold change” value stood at 0.317.
The same measure for RRIRFRPPRLPRPRPRPSTRPRP: -0.013; for RRIRERPPRLPRPRPRPMTPPRP: -0.0365.
As to RRIRCRPPRLPRPRPRPRCSPRP, the “shrunken log2 fold change” value is -0.0164.
With RRIRYRPPRLPRPRPRPIPAPRP, the “shrunken log2 fold change” value was -0.0717.
The same measure for RRIRGRPPRLPRPRPRPKRRPRP: 1.3.
The same measure for RRIRMRPPRLPRPRPRPAIGPRP: 0.0174; for RRIRHRPPRLPRPRPRPCGGPRP: -0.0282.
Under RRIRKRPPRLPRPRPRPKVMPRP stands 0.0802; under RRIRFRPPRLPRPRPRPVVVPRP, -0.0228; under RRIRDRPPRLPRPRPRPTKQPRP, 0.188.
On to RRIRMRPPRLPRPRPRPCPIPRP, for which the “shrunken log2 fold change” value is -0.404.
